According to US20120192294:

Tested on: Aβ1-42 peptide, untreated (non-nitrated)

Substance: recombinant insulin degrading enzyme (IDE)
- degradation of Aβ (immunoblot with 6E10 after 2 h incubation): Analysis after 2 h of incubation showed decreased degradation of Aβ with increasing concentration of Sin-1
